Test results from patent publication US20250034258A1 (Merck Sharp & Dohme, published 2025).

B1: α-PD-L1 VHH (VHH)
VHH: EVQLVESGGGLVQAGGSLSVSCAPSGRTFSNYAMGWFRQAPGKEREFVARISGGGGYTAYADSVKGRFTIARDNAKNTVYLQMNSLKPEDTAVYYCAAGSIDSRQPYDSTRRYDYWGQGTLVTVSS
notes: also called anti-PD-L1 VHH
B2: α-PD-L1 VHH 2 (VHH)
VHH: EVQLVESGGGLKQAGGSLRLSCTASARASTYIAMAWFRRTPGKAREFVAAITWSGGHTTYADSMKGRFTISRDNAKNTVYLHLNALQPEDAGVYYCAANQRNTVGPSEGAYPYWGQGTLVTVSS
B3: α-PD-1 VHH (VHH)
VHH: EVQLVESGGGLVQAGDSLRLSCVASGRTFSSYHMGWFRQAPGKEREFVAAIPRSGSNIGYSAFVKDRGTISRDNAKNTVYLQINNLAPDDTAVYYCAAKSAAGYYSGVVFTADYDYTYWGQGTLVTVSS
notes: also called anti-PD-1 VHH
B4: α-PD-L1 VHH 3 (VHH)
VHH: EVQLVESGGGLVQPGGSLRLSCAASGRTLSNHAMHWFRQAPGKEREFVSAITWSDGETYYEDSVKGRFTISRDNAKDTAYLEMQSLKPEDTAVYYCAAKMGGPTSIPGLVEYWGQGTLVTVSS

Columns and labels:
human PD-L1 = target: T1, human PD-L1 (human, UniProt Q9NZQ7 19-290); experiment: flow cytometry on CHO-K1.hPD-L1 cells, anti-FLAG detection
T1 construct: whole, on cells; also called hPD-L1; CHO-K1.hPD-L1
Procedure: CHO-K1.hPD-L1 cells were resuspended in Stain Buffer (PBS, 2% FBS, 0.05% sodium azide) and 1E5 cells/well were transferred to a 96-well V-bottom plate and centrifuged. Cells were suspended in 100 μL/well serial diluted VHH or anti-PD-L1 antibody (atezolizumab) in Stain Buffer and incubated for 30 minutes at 4° C. VHH binding was detected by resuspending the samples subsequently in 100 μL/well mouse a-FLAG antibody (Sigma: F1804) and detected with PE-labeled goat anti-mouse IgG (Jackson ImmunoResearch: 115-116-071) as detection antibody and 5 nM TOPRO3 (Molecular Probes: T3605) as dead dye. Between each step, the cells were collected via centrifugation for 5 minutes at 200×g and washed three times with 100 μL/well Stain Buffer.

human PD-1 = target: T2, human PD-1 (human, UniProt Q15116 25-288); experiment: flow cytometry on CHO-K1.hPD-1 cells, anti-FLAG detection
T2 construct: whole, on cells; also called hPD-1; CHO-K1.hPD-1
T2 sequence (Q15116 25-288): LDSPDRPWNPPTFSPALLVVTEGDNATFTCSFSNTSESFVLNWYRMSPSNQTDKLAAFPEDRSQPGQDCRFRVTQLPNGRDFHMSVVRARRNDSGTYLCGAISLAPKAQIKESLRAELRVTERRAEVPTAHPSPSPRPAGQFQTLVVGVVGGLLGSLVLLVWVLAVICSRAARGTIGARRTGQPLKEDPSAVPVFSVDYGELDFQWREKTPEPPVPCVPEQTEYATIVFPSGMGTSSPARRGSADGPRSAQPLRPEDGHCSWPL

T1 sequence (Q9NZQ7 19-290): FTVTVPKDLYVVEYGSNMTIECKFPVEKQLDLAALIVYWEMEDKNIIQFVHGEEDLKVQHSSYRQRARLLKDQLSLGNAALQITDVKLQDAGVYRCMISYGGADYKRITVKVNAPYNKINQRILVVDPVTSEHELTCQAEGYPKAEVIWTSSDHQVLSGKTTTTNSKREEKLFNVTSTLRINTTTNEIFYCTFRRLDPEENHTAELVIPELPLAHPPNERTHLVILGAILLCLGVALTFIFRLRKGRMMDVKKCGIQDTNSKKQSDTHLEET

| Binder | binding result (human PD-L1) | binding result (human PD-1) |
| --- | --- | --- |
| B1 | binds |  |
| B2 | binds |  |
| B3 |  | binds |
| B4 | binds |  |
